# B1: Tumor necrosis factor alpha-induced protein 3 (Homo sapiens), P21580 (parent)
# chain: MAEQVLPQALYLSNMRKAVKIRERTPEDIFKPTNGIIHHFKTMHRYTLEMFRTCQFCPQFREIIHKALIDRNIQATLESQKKLNWCREVRKLVALKTNGDGNCLMHATSQYMWGVQDTDLVLRKALFSTLKETDTRNFKFRWQLESLKSQEFVETGLCYDTRNWNDEWDNLIKMASTDTPMARSGLQYNSLEEIHIFVLCNILRRPIIVISDKMLRSLESGSNFAPLKVGGIYLPLHWPAQECYRYPIVLGYDSHHFVPLVTLKDSGPEIRAVPLVNRDRGRFEDLKVHFLTDPENEMKEKLLKEYLMVIEIPVQGWDHGTTHLINAAKLDEANLPKEINLVDDYFELVQHEYKKWQENSEQGRREGHAQNPMEPSVPQLSLMDVKCETPNCPFFMSVNTQPLCHECSERRQKNQNKLPKLNSKPGPEGLPGMALGASRGEAYEPLAWNPEESTGGPHSAPPTAPSPFLFSETTAMKCRSPGCPFTLNVQHNGFCERCHNARQLHASHAPDHTRHLDPGKCQACLQDVTRTFNGICSTCFKRTTAEASSSLSTSLPPSCHQRSKSDPSRLVRSPSPHSCHRAGNDAPAGCLSQAARTPGDRTGTSKCRKAGCVYFGTPENKGFCTLCFIEYRENKHFAAASGKVSPTASRFQNTIPCLGRECGTLGSTMFEGYCQKCFIEAQNQRFHEAKRTEEQLRSSQRRDVPRTTQSTSRPKCARASCKNILACRSEELCMECQHPNQRMGPGAHRGEPAPEDPPKQRCRAPACDHFGNAKCNGYCNECFQFKQMYG
# B2: Tumor necrosis factor alpha-induced protein 3 (Homo sapiens), P21580 (parent)
# chain: B1 chain
# partner: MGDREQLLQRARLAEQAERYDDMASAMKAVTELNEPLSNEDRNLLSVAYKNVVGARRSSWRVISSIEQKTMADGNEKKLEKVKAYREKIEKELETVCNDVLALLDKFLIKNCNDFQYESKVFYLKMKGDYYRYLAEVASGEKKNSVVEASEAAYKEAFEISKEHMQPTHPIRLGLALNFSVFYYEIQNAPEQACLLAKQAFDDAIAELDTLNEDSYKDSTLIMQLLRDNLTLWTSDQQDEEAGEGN
# Variants of: B1
# Conditions: with 1433z_mouse Ywhaz
row,effect of a mutation on the interaction,Variant
1,disrupting interaction,S565A
2,disrupting interaction,R562A

# Variants of: B2
# Conditions: with 1433f_mouse Ywhah
row,effect of a mutation on the interaction,Variant
1,disrupting interaction,S565A
2,disrupting interaction,R562A
